The source of these data is PMC6338448 (Cell reports, 2018).

In test [1] the target is T1, C-terminally His-tagged soluble RECK (sRECK-His) (human, UniProt O95980 23-942).
T1 sequence (looked up): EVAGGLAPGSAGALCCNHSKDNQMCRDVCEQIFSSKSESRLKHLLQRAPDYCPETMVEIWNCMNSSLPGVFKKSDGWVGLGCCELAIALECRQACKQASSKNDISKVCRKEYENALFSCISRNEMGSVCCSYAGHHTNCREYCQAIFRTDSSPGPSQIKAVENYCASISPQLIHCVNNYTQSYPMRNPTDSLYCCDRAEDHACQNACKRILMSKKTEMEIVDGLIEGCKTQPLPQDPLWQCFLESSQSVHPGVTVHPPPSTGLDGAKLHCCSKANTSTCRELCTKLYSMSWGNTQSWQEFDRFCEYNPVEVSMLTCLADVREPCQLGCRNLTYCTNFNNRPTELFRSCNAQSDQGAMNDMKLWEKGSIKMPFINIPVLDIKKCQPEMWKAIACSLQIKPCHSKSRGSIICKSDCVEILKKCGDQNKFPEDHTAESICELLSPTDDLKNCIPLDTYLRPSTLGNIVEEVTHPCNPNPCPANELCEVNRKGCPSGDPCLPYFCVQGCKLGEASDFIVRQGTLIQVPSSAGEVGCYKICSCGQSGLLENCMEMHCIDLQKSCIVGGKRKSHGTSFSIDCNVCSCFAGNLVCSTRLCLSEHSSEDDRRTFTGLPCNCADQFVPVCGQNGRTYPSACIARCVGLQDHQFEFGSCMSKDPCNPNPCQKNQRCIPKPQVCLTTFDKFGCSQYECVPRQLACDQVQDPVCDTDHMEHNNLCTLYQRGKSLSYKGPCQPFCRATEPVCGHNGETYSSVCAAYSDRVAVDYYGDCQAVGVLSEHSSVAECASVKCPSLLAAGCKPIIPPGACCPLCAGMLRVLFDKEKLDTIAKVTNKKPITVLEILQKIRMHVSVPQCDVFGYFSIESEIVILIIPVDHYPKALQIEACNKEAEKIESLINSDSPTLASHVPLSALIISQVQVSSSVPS
Briefly: cross-linking.

Test [2] has as its target T2, recombinant soluble (ΔGPI) Fc-tagged RECK (sRECK-Fc) (human, UniProt O95980 23-942).
T2 sequence (looked up): T1 sequence (looked up)
In words: pull-down.

Test [3] addresses T2, recombinant soluble (ΔGPI) Fc-tagged …. Briefly: pull-down. This is another data set of the same source.

Like-named read-outs stand apart in the source and are kept apart here.

For orientation: stoichiometry N means a count of units in the complex or per binding partner.

B1: WNT7A (co-expressed with sRECK-His in Expi293F cells) (ligand, human, UniProt O00755 32-349, looked up)
chain: LGASIICNKIPGLAPRQRAICQSRPDAIIVIGEGSQMGLDECQFQFRNGRWNCSALGERTVFGKELKVGSREAAFTYAIIAAGVAHAITAACTQGNLSDCGCDKEKQGQYHRDEGWKWGGCSADIRYGIGFAKVFVDAREIKQNARTLMNLHNNEAGRKILEENMKLECKCHGVSGSCTTKTCWTTLPQFRELGYVLKDKYNEAVHVEPVRASRNKRPTFLKIKKPLSYRKPMDTDLVYIEKSPNYCEEDPVTGSVGTQGRACNKTAPQASGCDLMCCGRGYNTHQYARVWQCNCKFHWCCYVKCNTCSERTEMYTCK
On to B1, for which, in test [1], the “stoichiometry N” value amounted to 1.

B2: recombinant soluble GPR124 ECD (sGPR124), C-terminally His-tagged (domain or fragment)
chain: APGCPLSIRSCKCSGERPKGLSGGVPGPARRRVVCSGGDLPEPPEPGLLPNGTVTLLLSNNKITGLRNGSFLGLSLLEKLDLRNNIISTVQPGAFLGLGELKRLDLSNNRIGCLTSETFQGLPRLLRLNISGNIFSSLQPGVFDELPALKVVDLGTEFLTCDCHLRWLLPWAQNRSLQLSEHTLCAYPSALHAQALGSLQEAQLCCEGALELHTHHLIPSLRQVVFQGDRLPFQCSASYLGNDTRIRWYHNRAPVEGDEQAGILLAESLIHDCTFITSELTLSHIGVWASGEWECTVSMAQGNASKKVEIVVLETSASYCPAERVANNRGDFRWPRTLAGITAYQSCLQYPFTSVPLGGGAPGTRASRRCDRAGRWEPGDYSHCLYTNDITRVLYTFVLMPINASNALTLAHQLRVYTAEAASFSDMMDVVYVAQMIQKFLGYVDQIKELVEVMVDMASNLMLVDEHLLWLAQREDKACSRIVGALERIGGAALSPHAQHISVNARNVALEAYLIKPHSYVGLTCTAFQRREGGVPGTRPGSPGQNPPPEPEPPADQQLRFRCTTGRPNVSLSSFHIKNSVALASIQLPPSLFSSLPAALAPPVPPDCTLQLLVFRNGRLFHSHSNTSRPGAAGPGKRRGVATPVIFAGTSGCGVGNLTEPVAVSLRHWAEGAEPVAAWWSQEGPGEAGGWTSEGCQLRSSQPNVSALHCQHLGNVAVLMELDGGGS
As to B2, in test [2], the binding result is “binds”.

B3: sGPR124 ΔHRM (Δaa 349 - 426) (domain or fragment, human)
chain: APGCPLSIRSCKCSGERPKGLSGGVPGPARRRVVCSGGDLPEPPEPGLLPNGTVTLLLSNNKITGLRNGSFLGLSLLEKLDLRNNIISTVQPGAFLGLGELKRLDLSNNRIGCLTSETFQGLPRLLRLNISGNIFSSLQPGVFDELPALKVVDLGTEFLTCDCHLRWLLPWAQNRSLQLSEHTLCAYPSALHAQALGSLQEAQLCCEGALELHTHHLIPSLRQVVFQGDRLPFQCSASYLGNDTRIRWYHNRAPVEGDEQAGILLAESLIHDCTFITSELTLSHIGVWASGEWECTVSMAQGNASKKVEIVVLETLYTFVLMPINASNALTLAHQLRVYTAEAASFSDMMDVVYVAQMIQKFLGYVDQIKELVEVMVDMASNLMLVDEHLLWLAQREDKACSRIVGALERIGGAALSPHAQHISVNARNVALEAYLIKPHSYVGLTCTAFQRREGGVPGTRPGSPGQNPPPEPEPPADQQLRFRCTTGRPNVSLSSFHIKNSVALASIQLPPSLFSSLPAALAPPVPPDCTLQLLVFRNGRLFHSHSNTSRPGAAGPGKRRGVATPVIFAGTSGCGVGNLTEPVAVSLRHWAEGAEPVAAWWSQEGPGEAGGWTSEGCQLRSSQPNVSALHCQHLGNVAVLMELDGGGS
As for B3, the binding result in test [3] is recorded as “binds”.
